B1: SPI1-WT duplex (dsDNA)
DNA 1: AAGGGGACTATCTCCCAGCGGCAGGCCCTT
DNA 2: AAGGGCCTGCCGCTGGGAGATAGTCCCCTT
B2: GATA2-WT duplex (dsDNA)
DNA 1: CTTGGGCTTTCCTCCCACCCGGGACTGGTG
DNA 2: CACCAGTCCCGGGTGGGAGGAAAGCCCAAG
B3: RUNX3-WT duplex (dsDNA)
DNA 1: CCGGGCGCCGCCCCCTGCGCCCTGAGGCCC
DNA 2: GGGCCTCAGGGCGCAGGGGGCGGCGCCCGG
B4: GATA1-WT duplex (dsDNA)
DNA 1: ACACACCTGTAGTCCCAGCTACTCAGGAGG
DNA 2: CCTCCTGAGTAGCTGGGACTACAGGTGTGT

Sequence of RIOK2 (rhRIOK2, full length) (Q9BVS4 whole entry): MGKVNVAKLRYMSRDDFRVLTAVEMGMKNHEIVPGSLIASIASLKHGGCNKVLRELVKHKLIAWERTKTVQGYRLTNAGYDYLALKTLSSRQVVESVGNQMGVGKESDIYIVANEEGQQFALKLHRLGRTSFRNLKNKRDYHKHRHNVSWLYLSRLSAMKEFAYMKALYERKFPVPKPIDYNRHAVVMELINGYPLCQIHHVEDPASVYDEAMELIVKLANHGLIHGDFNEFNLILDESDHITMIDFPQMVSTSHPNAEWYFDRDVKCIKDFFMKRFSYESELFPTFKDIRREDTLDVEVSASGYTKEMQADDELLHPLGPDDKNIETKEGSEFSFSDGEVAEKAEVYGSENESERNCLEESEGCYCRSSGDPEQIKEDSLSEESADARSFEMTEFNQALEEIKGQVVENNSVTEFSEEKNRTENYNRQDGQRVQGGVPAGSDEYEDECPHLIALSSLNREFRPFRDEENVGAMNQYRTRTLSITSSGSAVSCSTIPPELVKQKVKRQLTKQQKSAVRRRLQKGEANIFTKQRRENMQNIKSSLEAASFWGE

In the data set the target is RIOK2 (rhRIOK2, full length) (Homo sapiens, UniProt Q9BVS4 SEQ:1-552). The experiment in a line: EMSA; low-salt buffer, 4 C, protein:DNA 5:1. Conditions: tags: GST; Abcam. Here is the method:
Recombinant human GST-tagged RIOK2 (rhRIOK2, Abcam) was incubated with duplex DNA (Table 5) at 5:1 molar ratio in a low-salt buffer for 20-30 minutes at 4° C. and 2% agarose gel was cast and cooled to 4° C. The DNA-protein mixture was supplemented with 0.22p filtered 50% glycerol solution to facilitate loading. The gel was run for 1.5 hours at 4° C., followed by incubation in ethidium bromide solution for 30 minutes and visualized using ChemiDoc Touch Imaging system (Bio-Rad). ImageJ was used to quantify band shifts.
In the case of B1, the binding result is reported as “binds”.

Turning to B2, the binding result is “binds”.

Regarding B3, the binding result is listed as “binds”.

With B4, the binding result is “binds”.
